“Also recorded” adds a separate entry of the source. Blank lines part the entries; values can stand above or below the molecule they belong to.
B3: PID-3 full-length (natural protein, C. elegans, UniProt O76616 1-307, looked up)
chain: MVAHQKADFKSKWAMVVTVNNLNDKKRADLREFSEWFIETLRLEGAFIGHYFNYEAAPVTIVETLPGNFDSCTNAYQKIHKEHPQVVLVVHILPQSQSNEYEWMKVLASRYGFVRQGLLYDNCANRFQNVETDQNSVFRNMCQWIYRSGTAIVRNEGNACGILHGKDPKPTFDKVLFNSEDIKDSVFKVLHAEEEPRGADQENMLKISGYPGMLNTFGIAQLLTPYRVNGITITGAQSAVVALENKFQVYQAVQDFNGKKLDRNHKLQVSSLVVSSPAVPLEWPSLKKSKKLVEQVGKPIRLSKVSS

Key:
TOFU-6 RRM = target: T1, TOFU-6 RRM (Caenorhabditis elegans, UniProt Q09293 1-99); assay: fluorescence anisotropy
T1 sequence: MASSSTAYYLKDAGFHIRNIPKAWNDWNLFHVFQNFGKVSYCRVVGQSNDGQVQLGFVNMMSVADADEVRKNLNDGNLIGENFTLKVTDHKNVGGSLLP

[1] = target: T2, full-length TOST-1 (TOST-1^FL) (C. elegans, UniProt Q18490 1-142); assay: NMR titration
T2 sequence (looked up): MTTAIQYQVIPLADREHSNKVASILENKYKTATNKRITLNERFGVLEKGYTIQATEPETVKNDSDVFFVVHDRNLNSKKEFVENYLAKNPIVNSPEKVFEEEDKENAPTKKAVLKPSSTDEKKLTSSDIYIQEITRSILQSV

[2] = target: T2, full-length TOST-1 (TOST-1^FL); assay: ITC
PID-3 full-length = target: B3; assay: SEC
PID-1-mVenus-Strep = target: T3, PID-1-mVenus-Strep (C. elegans, UniProt Q19541 1-169); assay: pull-down
T3 sequence (looked up): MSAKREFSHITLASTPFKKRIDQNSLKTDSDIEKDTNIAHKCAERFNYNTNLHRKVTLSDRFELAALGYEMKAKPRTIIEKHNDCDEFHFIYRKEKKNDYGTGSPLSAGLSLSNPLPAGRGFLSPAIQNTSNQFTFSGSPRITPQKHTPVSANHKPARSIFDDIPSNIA

ERH-2 I81A/R83A = target: T4, ERH-2 I81A/R83A (C. elegans, UniProt Q20057 1-113, I81A | R83A); assay: pull-down
T4 sequence (looked up): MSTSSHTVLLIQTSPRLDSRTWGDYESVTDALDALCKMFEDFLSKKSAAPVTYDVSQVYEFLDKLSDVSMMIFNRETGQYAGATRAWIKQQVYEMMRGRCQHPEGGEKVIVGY

ERH-2 W87A = target: T5, ERH-2 W87A (C. elegans, UniProt Q20057 1-113, W87A); assay: pull-down
T5 sequence (looked up): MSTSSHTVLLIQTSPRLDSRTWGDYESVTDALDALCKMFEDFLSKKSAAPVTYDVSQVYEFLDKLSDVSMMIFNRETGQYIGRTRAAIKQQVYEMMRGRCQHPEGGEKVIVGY

TOFU-6 = target: T6, TOFU-6 (C. elegans, UniProt Q09293 1-367); assay: SEC-MALS
T6 sequence (looked up): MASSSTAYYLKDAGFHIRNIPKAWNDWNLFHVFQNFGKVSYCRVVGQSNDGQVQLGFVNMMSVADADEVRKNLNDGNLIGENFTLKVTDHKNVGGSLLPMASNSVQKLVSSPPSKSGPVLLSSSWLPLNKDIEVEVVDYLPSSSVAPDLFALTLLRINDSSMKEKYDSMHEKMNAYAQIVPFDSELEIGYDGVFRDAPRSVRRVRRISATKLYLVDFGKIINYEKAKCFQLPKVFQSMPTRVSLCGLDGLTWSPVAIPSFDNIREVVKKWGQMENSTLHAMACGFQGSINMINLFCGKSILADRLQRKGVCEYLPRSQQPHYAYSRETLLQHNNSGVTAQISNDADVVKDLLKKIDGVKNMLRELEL

SEC-MALS = target: the molecule itself; assay: SEC-MALS
21U RNA = 21U RNA sequencing; type: in vivo, C. elegans; details: small RNA-seq, 20°C and 25°C, n = 3, versus wild type
[3] = test system: P granules (perinuclear foci); assay: Subcellular localization by confocal microscopy; type: in vivo, C. elegans; details: GFP-tagged PID-3, 25°C
PID-3/ERH-2 subcomplex = target: T7, PID-3/ERH-2 subcomplex (C. elegans, UniProt O76616 1-307; Q20057 1-113); assay: pull-down
T7 sequence (looked up) 1: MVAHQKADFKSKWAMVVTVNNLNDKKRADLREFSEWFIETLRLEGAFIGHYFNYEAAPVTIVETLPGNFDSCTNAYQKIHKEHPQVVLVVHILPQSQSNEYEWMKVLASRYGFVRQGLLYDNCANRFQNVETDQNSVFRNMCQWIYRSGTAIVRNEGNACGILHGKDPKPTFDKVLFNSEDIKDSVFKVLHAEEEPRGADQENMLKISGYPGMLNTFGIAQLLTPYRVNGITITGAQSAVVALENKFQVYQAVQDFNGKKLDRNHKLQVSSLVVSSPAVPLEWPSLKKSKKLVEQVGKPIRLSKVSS
T7 sequence (looked up) 2: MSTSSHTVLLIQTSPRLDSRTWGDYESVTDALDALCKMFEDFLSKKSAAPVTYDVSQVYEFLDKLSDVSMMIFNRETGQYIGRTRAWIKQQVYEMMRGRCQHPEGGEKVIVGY

Molecule: UUUUUUUUUUUUUUUU (ssRNA) [Cy5-U16]
Kd (TOFU-6 RRM): ~60 µM

binding result [1]: binds
B1: ^15N-labeled full-length ERH-2 (natural protein, C. elegans)
chain: GHMASMSTSSHTVLLIQTSPRLDSRTWGDYESVTDALDALCKMFEDFLSKKSAAPVTYDVSQVYEFLDKLSDVSMMIFNRETGQYIGRTRAWIKQQVYEMMRGRCQHPEGGEKVIVGY

Kd [2]: 13 µM
binding result (PID-3 full-length): binds
binding result (PID-1-mVenus-Strep): binds
B2: full-length ERH-2^FL (natural protein, C. elegans, UniProt Q20057 1-113, looked up)
chain: MSTSSHTVLLIQTSPRLDSRTWGDYESVTDALDALCKMFEDFLSKKSAAPVTYDVSQVYEFLDKLSDVSMMIFNRETGQYIGRTRAWIKQQVYEMMRGRCQHPEGGEKVIVGY

binding result (ERH-2 I81A/R83A): binds
binding result (ERH-2 W87A): binds
Molecule: TFDKVLFNSEDIKDSVFKVLHAEEEPRGADQEN (peptide, UniProt O76616 171-203, looked up) [GST-PID-3^pep]

Molecule: B3
binding result (TOFU-6): binds
binding result (SEC-MALS): binds

B4: PID-3 (I182A and V186A) (protein, UniProt O76616 1-307, looked up, variant I182A V186A)
Protein pid-3: MVAHQKADFKSKWAMVVTVNNLNDKKRADLREFSEWFIETLRLEGAFIGHYFNYEAAPVTIVETLPGNFDSCTNAYQKIHKEHPQVVLVVHILPQSQSNEYEWMKVLASRYGFVRQGLLYDNCANRFQNVETDQNSVFRNMCQWIYRSGTAIVRNEGNACGILHGKDPKPTFDKVLFNSEDAKDSAFKVLHAEEEPRGADQENMLKISGYPGMLNTFGIAQLLTPYRVNGITITGAQSAVVALENKFQVYQAVQDFNGKKLDRNHKLQVSSLVVSSPAVPLEWPSLKKSKKLVEQVGKPIRLSKVSS
21U RNA levels (21U RNA): temperature-sensitive effect on overall 21U RNA levels; also recorded: affect all 21U RNA species

B5: PID-3(A220E) (protein, UniProt O76616 1-307, looked up, variant A220E)
Protein pid-3: MVAHQKADFKSKWAMVVTVNNLNDKKRADLREFSEWFIETLRLEGAFIGHYFNYEAAPVTIVETLPGNFDSCTNAYQKIHKEHPQVVLVVHILPQSQSNEYEWMKVLASRYGFVRQGLLYDNCANRFQNVETDQNSVFRNMCQWIYRSGTAIVRNEGNACGILHGKDPKPTFDKVLFNSEDIKDSVFKVLHAEEEPRGADQENMLKISGYPGMLNTFGIEQLLTPYRVNGITITGAQSAVVALENKFQVYQAVQDFNGKKLDRNHKLQVSSLVVSSPAVPLEWPSLKKSKKLVEQVGKPIRLSKVSS
subcellular localization [3]: did not form perinuclear foci

binding result (PID-3/ERH-2 subcomplex): binds
B6: TOST-1-mVenus-Strep (natural protein, C. elegans, UniProt Q18490 1-142, looked up)
chain: MTTAIQYQVIPLADREHSNKVASILENKYKTATNKRITLNERFGVLEKGYTIQATEPETVKNDSDVFFVVHDRNLNSKKEFVENYLAKNPIVNSPEKVFEEEDKENAPTKKAVLKPSSTDEKKLTSSDIYIQEITRSILQSV

Reference: publication PMC8415317 (Genes & Development, 2021)
